Measurements taken from publication PMC8703390, “Humanization, Radiolabeling and Biodistribution Studies of an IgG1-Type Antibody Targeting Uncomplexed PSA for Theranostic Applications” (Pharmaceuticals, 2021).

Experiments:
Conditions in all cases: both partners purified
[1] = target: T1, human kallikrein-2 (hK2) (Homo sapiens, UniProt P20151); test: SPR; control hK2 antigen; data not shown
T1 construct: human kallikrein-2 (hK2), the human protein most similar to PSA; source: bought: Innovagen AB (ELISA)
T1 sequence (P20151 19-261): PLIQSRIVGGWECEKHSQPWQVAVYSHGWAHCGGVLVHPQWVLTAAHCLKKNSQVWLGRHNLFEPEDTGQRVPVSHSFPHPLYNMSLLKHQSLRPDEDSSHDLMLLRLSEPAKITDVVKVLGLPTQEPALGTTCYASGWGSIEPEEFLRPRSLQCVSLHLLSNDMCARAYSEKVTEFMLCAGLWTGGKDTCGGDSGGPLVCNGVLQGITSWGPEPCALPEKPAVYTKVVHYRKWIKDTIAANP

[2] = target: T2, prostate-specific antigen (PSA), uncomplexed free PSA (Homo sapiens, UniProt P07288); test: SPR; Biacore 2000; PSA immobilised on a CM4 chip by amine coupling (900-1000 RU); antibodies at 100, 50, 25, 12.5 and 10 nM in HSP-buffer flown at 30 uL/min; association 4-5 min, dissociation up to 480 min; bi-exponential fits to binding and dissociation curves; KD = Koff/Kon
T2 construct: prostate-specific antigen (PSA), human kallikrein; uncomplexed (free) form; also called fPSA; source: bought: Merck (ELISA)
T2 sequence (P07288 25-261, one chain of several): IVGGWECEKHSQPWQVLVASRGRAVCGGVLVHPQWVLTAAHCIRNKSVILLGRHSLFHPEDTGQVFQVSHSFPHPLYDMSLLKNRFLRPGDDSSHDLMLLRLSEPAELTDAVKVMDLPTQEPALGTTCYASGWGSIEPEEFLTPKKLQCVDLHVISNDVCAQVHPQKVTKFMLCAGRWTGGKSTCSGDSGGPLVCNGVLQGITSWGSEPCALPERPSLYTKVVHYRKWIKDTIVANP

[3] = target: T1, human kallikrein-2 (hK2); test: ELISA; wells coated with PSA or hK2 (100 uL at 1 ug/mL) overnight; h5A10 dilution series from 5 ug/mL in four-fold steps, 1 h at RT; detected with goat anti-human-AP and pNPP, absorbance at 405 nm

Row | Binder | binding result [1] | Kd [2] | koff [2] | kon [2] | binding result [3]
1 | murine 5A10 monoclonal IgG1 (antibody, V domains shown, heavy chain variable domain of m5A10; murine IgG1 heavy chain constant region; light chain variable domain of m5A10; light chain constant region; Murine IgG1; also called m5A10; parental murine antibody m5A10; source: provided by the University of Turku (Finland), prepared as previously described [8]) VH: EVQLVESGPGILQPSQTLSLTCSFSGFSLSTTGMGVSWIRQPSGKGLEWLAHLYWDEDKRYNPSLKSRLTISEDSSRNQVFLKITSVGPADSATYYCARKGYYGYFDYWGQGTALTVSS VL: DIVMTQSQKFMSTSVGDRVSVTCKASQNVNTDVAWYQQKPGQSPKALIFSTSYRSSGVPDRFTGSGSGTDFTLTITNVQSEDLAEYFCQQYSNYPLTFGAGTKVDLN | no binding (tested: 100, 50, 25, 12.5 and 10 nM) | 0.022 nM | 5.4e-06 s⁻¹ | 250000 M⁻¹ s⁻¹ | –
2 | humanized 5A10 conjugated with p-SCN-Bn-CHX-A''-DTPA (antibody, V domains shown, as the heavy chain variable domain of m1; IgG1 heavy chain constant region, as in m1; as the light chain variable domain of m1; as the light chain constant region of m1; not described; IgG1; 111In labelling used the 3:1 conjugate, 177Lu labelling the 12:1 conjugate; also called h5A10-DTPA; DTPA-h5A10; source: HEK293 cells, transfected; purified by Protein G chromatography; conjugated with …) VH: QVTLKESGPALVKPTQTLTLTCTFSGFSLSTTGMGVSWIRQPPGKALEWLAHIYWDDDKRYSTSLKTRLTISEDSSKNQVVLTMTNMDPVDTATYYCARKGYYGYFDYWGQGTLVTVSS VL: DIQMTQSPSSLSASVGDRVTVTCRASQNVNTDVAWYQQKPGKAPKALIFSTSYLQSGVPSRFSGSGSGTDFTLTISSLQPEDFATYYCQQYSNYPLTFGQGTKVEIK | no binding (tested: 100, 50, 25, 12.5 and 10 nM) | 0.012 nM | 4.8e-06 s⁻¹ | 390000 M⁻¹ s⁻¹ | –
3 | humanized 5A10 IgG1 (antibody, V domains shown, heavy chain variable domain of h5A10; IgG1 heavy chain constant region; light chain variable domain of h5A10; light chain constant region; not described, only the plasmid name p5A10VlhDhK hints at human kappa; IgG1; Light chain constant region probably human kappa (surmised from the plasmid name and the Vk1 template); also called h5A10; humanized antibody h5A10; source: HEK293 cells, transfected; …) VH: QVTLKESGPALVKPTQTLTLTCTFSGFSLSTTGMGVSWIRQPPGKALEWLAHIYWDDDKRYSTSLKTRLTISEDSSKNQVVLTMTNMDPVDTATYYCARKGYYGYFDYWGQGTLVTVSS VL: DIQMTQSPSSLSASVGDRVTVTCRASQNVNTDVAWYQQKPGKAPKALIFSTSYLQSGVPSRFSGSGSGTDFTLTISSLQPEDFATYYCQQYSNYPLTFGQGTKVEIK | – | 0.0077 nM | 4.8e-06 s⁻¹ | 620000 M⁻¹ s⁻¹ | no binding (tested: 5 µg/mL)
4 | murine 5A10 conjugated with p-SCN-Bn-CHX-A''-DTPA (antibody, V domains shown, as the heavy chain variable domain of m2; murine IgG1 heavy chain constant region, as in m2; as the light chain variable domain of m2; as the light chain constant region of m2; Murine IgG1; also called m5A10-DTPA; DTPA-m5A10; source: provided by the University of Turku (Finland); conjugated with p-SCN-Bn-CHX-A''-DTPA and separated from free chelate on a NAP-5 column) VH: EVQLVESGPGILQPSQTLSLTCSFSGFSLSTTGMGVSWIRQPSGKGLEWLAHLYWDEDKRYNPSLKSRLTISEDSSRNQVFLKITSVGPADSATYYCARKGYYGYFDYWGQGTALTVSS VL: DIVMTQSQKFMSTSVGDRVSVTCKASQNVNTDVAWYQQKPGQSPKALIFSTSYRSSGVPDRFTGSGSGTDFTLTITNVQSEDLAEYFCQQYSNYPLTFGAGTKVDLN | no binding (tested: 100, 50, 25, 12.5 and 10 nM) | 0.023 nM | 6.3e-06 s⁻¹ | 270000 M⁻¹ s⁻¹ | –
